Data: the DeepSol protein solubility set

Experiment: soluble on expression in E. coli; label from the status in PepcDB or PDB records

Question: For “MGSDKIHHHHHHMLAVEMRRIYKVYPDGVVALKGVDFTVEEGEIHGLLGENGAGKSTLMRILYGEIKPTKGEVKVFGDKVEFNGPWDAIRKGIAMVYQHFTLIPTFTVLENLYLSMLTINPNITINEVRKLAKEKMKDIGFSVPLDDVVEDLPIGIQQRVEIIKALMANAKILILDEPTSVLTPLEVEELFKTLRKLKENGITVIFITHKLKEVKEITDRVTVLRRGEVVGVAKTKEVSERDLAKMMVQREIVMEIKKSPASPGNTVLRVEDLWVKDDRGLDAVKGVSFELKEGEILGIAGVQGNGQKELAEALAGIRRIEKGRIELLGRDVTELSADKRYKAGLAYVPDSRKVGLVLDMSVVENVILTNLPSVMRGRRISWEKANKIGKEIVERFDVLVSSLSTPIKHLSGGNQQKVMVGREIIREPKVVIVSEPTQGLDIGATEFIRKTLVSLRDQGKGILLISTDLDEILQLSDRIAVMYEGKIMAIGKVEEFTLEKLGLLMGGVNA”, which “soluble on expression in E. coli” value is on record?
Answer: not soluble

Question: For “MKNKADNKKRNFLTHSEIESLLKAANTGPHAARNYCLTLLCFIHGFRASEICRLRISDIDLKAKCIYIHRLKKGFSTTHPLLNKEVQALKNWLSIRTSYPHAESEWVFLSRKGNPLSRQQFYHIISTSGGNAGLSLEIHPHMLRHSCGFALANMGIDTRLIQDYLGHRNIRHTVWYTASNAGRFYGIWDRARGRQRHAVL”, which “soluble on expression in E. coli” value is on record?
Answer: soluble

Question: With “MKPATLTAELDVRSGGRYRISFVSDDGEYFEAGGTYREVVPNELLVFTWAWHSTPERESLVTISFKPDSAGTLMIFHHAQFFDEAARDNHRRGWSSFLDKLDAFVALEHHHHHH” as the sequence, how does the “soluble on expression in E. coli” value read?
Answer: not soluble

Question: For “MRQNDKIMCILENRKKRDRKNLCRAINDFQQSFQKPETRREFDLSDPLALKKDLPARQSDNDVRNTISGMQKFMGEDLNFHERKKFQEEQNREWSLQQQREWKNARAEQKCAEALYTETRLQFDETAKHLQKLESTTRKAVCASVKDFNKSQAIESVERKKQEKKQEQEDNLAEITNLLRGDLLSENPQQAASSFGPHRVVPDRWKGMTQEQLEQIRLVQKQQIQEKLRLQEEKRQRDLDWDRRRIQGARATLLFERQQWRRQRDLRRALDSSNLSLAKEQHLQKKYMNEVYTNQPTGDYFTQFNTGSR”, which “soluble on expression in E. coli” value is on record?
Answer: not soluble

Question: With “MASINWSEISTVLIDMDGTILDLHFDNHFWLEHLPARYSEKMSISLDAAKAKLKADYLSVVGTIKWYCLDYWAEQTQMPITELKREIQHLIQLRTDARDFLIALKASGRDVVLVTNAHPESLSLKIERTQLDQYFDVLYSTHDFGVTKESQLLWQRLQEKHGFDCDSTLFIDDSIEILQSAQQYGIKHLLAVANPDSKKTANVITDFPAITSFDLLTAQLSKELINSTSN” as the sequence, how does the “soluble on expression in E. coli” value read?
Answer: not soluble

Question: With “MITKLDIQEKDGFLTMKDFPMNCIFNKVKTGCGATTIALTNNENYIITVPTTELIENKCYPTKDADGNVKFWKKHERRAGLSPVVNNLFGLYGNFTLELKKKLKDYLSSVGVKKIICTYDKIDKLMEFINPKDFKLTIDEYHNFLKQYSFRDKAINGVLAHFKEFKSYCFLSATPIPNNLKPAIFNDIPEYIADWNTTDDITVYPYHTDKPYMVAAKFIKTYQAKGCLNVNGIESKEAYFFINSVTEIKAILKQTQLTEDDYRIICADNPKNRRTLEEYTISSSADAPKKFNFITSKSFEGVDFHSETGLCFVVSNVQNRHTLVSIDMDIPQIVGRIRTKSNPFRNKVVHIFNTKATDHYTTFEEMEQIVDKEVKAAQERADMLNNTKLSEAATKQQINEIKKVGIESYLSYQENKFVVNDMVAKLQLYSYYIATVVYQSDKSLRETYAQSGIVTTKGKWHIAPEKFVKELIVKPTFRELHKRYCEIKANPMTFDLQTIDIEHEYPILGRAYRQLGVKELKRLRTIKSIQEALGEA” as the sequence, how does the “soluble on expression in E. coli” value read?
Answer: not soluble

Question: For “MAKKSSGSAPSRASGRSGKQTTHFQVVHDATKHRAKRSKSSKSGDSKSSSQDASVKKILDHKLFNTHYVEYNVLLSNGRKMMATEFDFEGKKEQKLLADYKYKITNQDDDPDEDFAVEKIIAHRFSGKKNKPLFLVMWRGYPNPVSHSEMWENELSNCKDLLEAYKDSHDMKPPPVKKSNKKKGSKKSPKKSAKSKDDDSSDEEEEEEVKEKSPKKSSKSTKRAASDDDEEEEPVATKKSKKSKRAETPEEEDDEEEEVVKTPKKTKKSKRAETPEEEDEVEEEVVKTPKKSKSSKSPKKSKRAETSDEEDEDEEDEKEAPKSSKKQEKAKSSKRVAEDSGNEEEDQDNTSGSGSEGEEEEEEASSNGKRKSRH”, which “soluble on expression in E. coli” value is on record?
Answer: not soluble

Question: With “MSLTTELGRVLVTGGAGFVGANLVTTLLDRGHWVRSFDRAPSLLPAHPQLEVLQGDITDADVCAAAVDGIDTIFHTAAIIELMGGASVTDEYRQRSFAVNVGGTENLLHAGQRAGVQRFVYTSSNSVVMGGQNIAGGDETLPYTDRFNDLYTETKVVAERFVLAQNGVDGMLTCAIRPSGIWGNGDQTMFRKLFESVLKGHVKVLVGRKSARLDNSYVHNLIHGFILAAAHLVPDGTAPGQAYFINDAEPINMFEFARPVLEACGQRWPKMRISGPAVRWVMTGWQRLHFRFGFPAPLLEPLAVERLYLDNYFSIAKARRDLGYEPLFTTQQALTECLPYYVSLFEQMKNEARAEKTAATVKEGHHHHHH” as the sequence, how does the “soluble on expression in E. coli” value read?
Answer: soluble

Question: For “QVQLQQSGTELVKSGASVKLSCTASGFNIKDTHMNWVKQRPEQGLEWIGRIDPANGNIQYDPKFRGKATITADTSSNTAYLQLSLTSEDTAVYYCATKVIYYQGRGAMDYWGQGTTLTVS”, which “soluble on expression in E. coli” value is on record?
Answer: soluble

Question: For “MGSDKIHHHHHHACVATAFSQTIEKENKIDVQKKNSSAEVSGRQLPEAKNIEPKLPDIEAKKLATDDKSMQTYGLTPSSPASGLSPYSYDFPALLESNPTLTDFYNFRQHSMNGQLSFIGSAEQKTYLGLGQYVAVNAGIRWIPSQRFFVEAGGDLSRQFYLALPIARQDIAGIYTRMRYSLVRNVRLNVWGQYFMGGNTPPPAYNPLFPHTGVGASISVDVKKNTEVSVGAEYQYDKKSREWKMETSGRVSIGF”, which “soluble on expression in E. coli” value is on record?
Answer: not soluble

Question: Which “soluble on expression in E. coli” value does the source give for “MAHHHHHHHRSPTRVNDGVDADEVTFVNRFTVHGAPAEFESVFARTAAFFARQPGFVRHTLLRERDKDNSYVNIAVWTDHDAFRRALAQPGFLPHATALRALSTSEHGLFTARQTLPEGGDTTGSGHR” here?
Answer: soluble

Question: Which “soluble on expression in E. coli” value does the source give for “MNFTRLLNQVLSTVQKKGNTFSDSPLNSFGGGALVAGVASMLLNGKNRKTITKIGSTAALGYLAYRGYQMWQQNKGRATVTQSDFQPAGETEETYSRTVLRTMIAAAASDGMIDEAERRTIEQESGTDPETAAWLAAEYRLPASIEDIAAAVGNDEALAAEAYLAARLVCADLSRKETVFLARLSQALKLDDNLVESLERQLGF” here?
Answer: not soluble

Question: Which “soluble on expression in E. coli” value does the source give for “MGSDKIHHHHHHMMELINNRGMRDWMIFIKVAEVGNLSRAARELDISISAVSKSLSRLENSIEVTLLRRDSHHLELTGAGQTAYASMKRITSSFQSLLDELRNPDKIIRGSIKFSAPAIVCEFLANKWIWEFTASYPDTKIYLDSRERSDFFSKSLEFDELVFKSGIIESEDLVYRKISPLKLVLCASPKYIRKYGRISHPGDLENHIIVGLHNHGLSGPLTLFRQDESYTISGAVNVHLSSNNLLSVLNLVLEGKGINLMTPAWLATKYLKNNELEIILPEWRVPDLPIYLVWRHRQYYSPLFQRFLSFIEDKWNNRPQIDFLNDD” here?
Answer: not soluble

Question: Which “soluble on expression in E. coli” value does the source give for “PYHGKSKPNKETFVCDLKTSLSNEAIGYIGKANTVGILLSGGMDSRVVAGVVRDLQKNNRSISVVGITWGNANSRDVIYSQRICQQFGWEFVHFPITAETLHKNIQLSAKMGAEVSALHFHAMSDVADLKGVDVILAGSYGDSVGRAEFSGKHVTKLSSVLPSRINNLGLIKDELFQSALESIRNDAQLPAFHNAGDNNLRKYEIEQECHYMRRMLQSCMHVVAEKIPFYQMFTAPSVFGLMWGLEPNIRNNDWYVELLNILPGQLLQIPWARTGILYHLPEGTADEFDKSYHQYGLWLKTELKDEMLNAMNSKSIRELGIFN” here?
Answer: not soluble

Question: With “KGKKLAVIAVAEHEFNQSENNGPGSAPLDPVDNYYQIREAQAKADIVIVTIHGGNEHFHYPRPGLRKLCKHYIDLGVNAVICHHPHVPGAYEIYNGRPIVYSLGNFVFDTLSMVHEWDVGYMAKLKFNEVD” as the sequence, how does the “soluble on expression in E. coli” value read?
Answer: not soluble

Question: With “MSKTVLILGAGVGGLTTADTLRQLLPPEDRIILVDRSFDGTLGLSLLWVLRGWRRPDDVRVRPTAASLPGVEMVTATVAHIDIAAQVVHTDNSVIGYDALVIALGAALNTDAVPGLSDALDADVAGQFYTLDGAAELRAKVEALEHGRIAVAIAGVPFKCPAAPFEAAFLIAAQLGDRYATGTVQIDTFTPDPLPMPVAGPEVGEALVSMLKDHGVGFHPRKALARVDEAARTMHFGDGTSEPFDLLAVVPPHVPSAAARSAGLSESGWIPVDPRTLSTSADNVWAIGDATVLTLPNGKPLPKAAVFAEAQAAVVAHGVARHLGYDVAERHFTGTGACYVETGDHQAAKGDGDFFAPSAPSVTLYPPSREFHEEKVAQELAWLTRWKTLEHHHHHH” as the sequence, how does the “soluble on expression in E. coli” value read?
Answer: not soluble

Question: Which “soluble on expression in E. coli” value does the source give for “MGHHHHHHSHLRHKEPGSGSGGGVYWVDSQQKRYVPVKGDHVIGIVTAKSGDIFKVDVGGSEPASLSYLSFEGATKRNRPNVQAISSRL” here?
Answer: not soluble

Question: With “TADNNSMPHGAVSSYAKLVQNQTPEDILEEFPEIIPLQQRPNTRSSETSNDESGETCFSGHDEEQIKLMNENCIVLDWDDNAIGAGTKKVCHLMENIEKGLLHRAFSVFIFNEQGELLLQQRATEKITFPDLWTNTCCSHPLCIDDELGLKGKLDDKIKGAITAAVRKLDHELGIPEDETKTRGKFHFLNRIHYMAPSNEPWGEHEIDYILFYKINAKENLTVNPNVNEVRDFKWVSPNDLKTMFADPSYKFTPWFKIICENYLFNWWEQLDDLSEVENDRQIHRML” as the sequence, how does the “soluble on expression in E. coli” value read?
Answer: soluble

Question: With “MGSDKIHHHHHHMSMVQSAFPPRRNSVGVQVGSIRIGGGAPIVVQSMTNTDTEDEIATTVQVAQLARAGSELVRITVNTAEAARAVPGIRARLDDMGCQVPLIGDFHFNGHKLVTEYPGCARALAKYRINPGNVGHGKKRDEQFSILIEAACKYEKPVRIGVNWGSLDPELLARMMDENARSGDPRDASAVMYEALITSALQSAERAEEIGLGRDRIILSCKMSGVRDLITVYRALAARCDYALHLGLTEAGMGSKGIVASTAALSVLLLEGIGDTIRISLTPEPGGDRAREVVVAQEILQTTGLRAFVPLVAACPGCGRTTSTYFQELAESIQGYVREQMLVWREEYEGVENMTLAVMGCVVNGPGESKHANIGISLPGSGERPVAPVFVDGQKAVTLKGDNIAGEFRQIVDEYVQMKYPKKAVDAH” as the sequence, how does the “soluble on expression in E. coli” value read?
Answer: not soluble

Question: With “MTTKEKVKALWQLCFDDNEEFVEMYFRLRYKNEINIAIESGDEIVSALQMIPYPMTFCGDTVQTSYISGACTHPDFRGNGVMRELLSQAFAKMLRNGTYFSTLIPAEPWLFDYYTRMGYASVFQYSVKEITVPEFIPSKEITVTSEIGCQKEVYEYLNSKLSGRTCCIQHSFEDFQVVMADLILSDGILVTARSENQINGLAIVYRRDKQLIISELFAETKDAEHSLLHHIKQFTGCRHMTQLLPPEKEQTQYPLGMARIINAKEVLQLYASAFPEDEMQLEVSDKQLSVNNGYYYLCNGKCMYSTERLPGAHIPMNISELTGRIFQALRPYMSLMLNK” as the sequence, how does the “soluble on expression in E. coli” value read?
Answer: not soluble

Question: For “GSPEFMDDIFTQCREGNAVAVRLWLDNTENDLNQGDDHGFSPLHWACREGRSAVVEMLIMRGARINVMNRGDDTPLHLAASHGHRDIVQKLLQYKADINAVNEHGNVPLHYACFWGQDQVAEDLVANGALVSICNKYGEMPVDKAKAPLRELLRERAEKMGQNLNRIPYKDTFWKGTTR”, which “soluble on expression in E. coli” value is on record?
Answer: soluble
